The text below walks through data of the supplement of paper PMC9112550, “Optimization of the antimicrobial peptide Bac7 by deep mutational scanning” (BMC Biology, 2022).

For this data set, the system named is Escherichia coli TOP10. The data set is described as follows: shrunken log2 fold change of peptide-encoding DNA abundance (4.5 h post-induction vs induction); higher = less antimicrobial activity (less host growth inhibition). Conditions: time post-induction: 4.5 h; library: site-saturation at positions 5, 18, 19, 20.
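Also: peptides expressed intracellularly from a pBAD plasmid library in pooled LB shake-flask culture, induced with 0.3% L-arabinose, DNA abundance read by NGS, three biological replicates, DESeq2 with apeglm shrinkage.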

Turning to RRIRSRPPRLPRPRPRPIRVPRP, the “shrunken log2 fold change” value was 0.047. As for RRIRKRPPRLPRPRPRPDCHPRP, the “shrunken log2 fold change” value was found to be 0.233. Consider RRIRERPPRLPRPRPRPNNLPRP, for which the “shrunken log2 fold change” value is -1.05. With RRIRMRPPRLPRPRPRPQASPRP the figure was 0.309; with RRIRVRPPRLPRPRPRPIPHPRP, -0.307; with RRIRSRPPRLPRPRPRPGAAPRP, 0.603. The figure for RRIRNRPPRLPRPRPRPLIFPRP is 1.39.

Consider RRIRRRPPRLPRPRPRPEILPRP, for which the “shrunken log2 fold change” value is 0.14. Consider RRIRTRPPRLPRPRPRPNRLPRP, for which the “shrunken log2 fold change” value was 0.0657. For the sequence RRIRGRPPRLPRPRPRPSRVPRP, the “shrunken log2 fold change” value was 0.61.

With RRIRWRPPRLPRPRPRPMGEPRP, the “shrunken log2 fold change” value was 0.0775. As to RRIRFRPPRLPRPRPRPHLQPRP, the “shrunken log2 fold change” value is -0.144. The figure for RRIRKRPPRLPRPRPRPRSNPRP is 0.515; for RRIRPRPPRLPRPRPRPMGYPRP it is -0.0838. Consider RRIRMRPPRLPRPRPRPNLLPRP, for which the “shrunken log2 fold change” value was -0.103. For RRIRVRPPRLPRPRPRPQAVPRP, the “shrunken log2 fold change” value is -0.0188. The figure for RRIRRRPPRLPRPRPRPHGCPRP is 0.000335; for RRIRVRPPRLPRPRPRPIWCPRP it is 0.0502.

With RRIRLRPPRLPRPRPRPVVCPRP, the “shrunken log2 fold change” value was -0.0501. The figure for RRIRIRPPRLPRPRPRPGPPPRP is 0.221; for RRIRARPPRLPRPRPRPNPVPRP it is 0.0917. With RRIRFRPPRLPRPRPRPKHKPRP the figure was -0.265; with RRIRKRPPRLPRPRPRPKNWPRP, 0.474; with RRIRCRPPRLPRPRPRPAPKPRP, 1.02.

Take RRIRLRPPRLPRPRPRPTDWPRP: the “shrunken log2 fold change” value turned out to be 0.947.

For RRIRYRPPRLPRPRPRPVHIPRP, the “shrunken log2 fold change” value is -0.526. The figure for RRIRCRPPRLPRPRPRPWCCPRP is -0.649; for RRIRQRPPRLPRPRPRPVYPPRP it is -0.0407; for RRIRQRPPRLPRPRPRPPDQPRP it is 1.82.

RRIRCRPPRLPRPRPRPCMDPRP: the “shrunken log2 fold change” value was -0.09.

In the case of RRIRNRPPRLPRPRPRPWEFPRP, the “shrunken log2 fold change” value was -0.00197. With RRIRVRPPRLPRPRPRPYIDPRP the figure was -0.372; with RRIRKRPPRLPRPRPRPYCSPRP, -0.0347; with RRIRCRPPRLPRPRPRPYIHPRP, -1.11.

As to RRIRTRPPRLPRPRPRPFKSPRP, the “shrunken log2 fold change” value is -0.0217. The figure for RRIRCRPPRLPRPRPRPLETPRP is -0.012; for RRIRLRPPRLPRPRPRPFRCPRP it is -0.181. In the case of RRIRGRPPRLPRPRPRPYNPPRP, the “shrunken log2 fold change” value was -0.504. The figure for RRIRPRPPRLPRPRPRPWAWPRP is 0.0719; for RRIRVRPPRLPRPRPRPKYSPRP it is -0.122; for RRIRERPPRLPRPRPRPKKMPRP it is -0.478. RRIRPRPPRLPRPRPRPQRLPRP: the “shrunken log2 fold change” value stood at 0.0191.

Regarding RRIRHRPPRLPRPRPRPQRWPRP, the “shrunken log2 fold change” value is 0.00359. With RRIRLRPPRLPRPRPRPYSMPRP the figure was -0.924; with RRIRIRPPRLPRPRPRPWQFPRP, -0.243; with RRIRRRPPRLPRPRPRPMDLPRP, 0.0641.

For RRIRMRPPRLPRPRPRPWVVPRP, the “shrunken log2 fold change” value amounted to 0.346. With RRIRDRPPRLPRPRPRPEGDPRP the figure was 0.502.

With RRIRKRPPRLPRPRPRPKKQPRP, the “shrunken log2 fold change” value is -0.119. Turning to RRIRPRPPRLPRPRPRPLEHPRP, the “shrunken log2 fold change” value is -0.565. The figure for RRIRYRPPRLPRPRPRPTSMPRP is -1. With RRIRVRPPRLPRPRPRPEWYPRP the figure was -0.419; with RRIRLRPPRLPRPRPRPHHMPRP, -0.353. The figure for RRIRMRPPRLPRPRPRPRTRPRP is 1.09. Take RRIRMRPPRLPRPRPRPTVFPRP: the “shrunken log2 fold change” value turned out to be 0.498.

In the case of RRIRIRPPRLPRPRPRPTMKPRP, the “shrunken log2 fold change” value is -0.309. For RRIRTRPPRLPRPRPRPLQWPRP, the “shrunken log2 fold change” value is 0.206. As to RRIRSRPPRLPRPRPRPNNHPRP, the “shrunken log2 fold change” value was -0.276. With RRIRDRPPRLPRPRPRPVIEPRP the figure was 0.662; with RRIRTRPPRLPRPRPRPEMCPRP, -0.00146.

As for RRIRYRPPRLPRPRPRPGDWPRP, the “shrunken log2 fold change” value was found to be 0.337.

Turning to RRIRMRPPRLPRPRPRPPQRPRP, the “shrunken log2 fold change” value was determined as 1.09.

With RRIRVRPPRLPRPRPRPTHYPRP, the “shrunken log2 fold change” value is -0.0832. The figure for RRIRSRPPRLPRPRPRPGEIPRP is 0.223; for RRIRLRPPRLPRPRPRPFDLPRP it is -0.0989; for RRIRERPPRLPRPRPRPQYEPRP it is -0.624.

For RRIRHRPPRLPRPRPRPVIVPRP, the “shrunken log2 fold change” value is -0.204.

As for RRIRARPPRLPRPRPRPHHNPRP, the “shrunken log2 fold change” value is -0.483. As to RRIRFRPPRLPRPRPRPAVHPRP, the “shrunken log2 fold change” value is -0.0819.

As to RRIRPRPPRLPRPRPRPVFFPRP, the “shrunken log2 fold change” value turned out to be 0.213. Turning to RRIRCRPPRLPRPRPRPGYVPRP, the “shrunken log2 fold change” value was -0.0932. For the sequence RRIRSRPPRLPRPRPRPIMTPRP, the “shrunken log2 fold change” value was determined as 0.164.

With RRIRVRPPRLPRPRPRPEKDPRP, the “shrunken log2 fold change” value was found to be 0.188.

For the sequence RRIRRRPPRLPRPRPRPQVMPRP, the “shrunken log2 fold change” value came to 0.0874. With RRIRVRPPRLPRPRPRPHRKPRP the figure was 0.164; with RRIRWRPPRLPRPRPRPYQPPRP, -0.0963. With RRIRHRPPRLPRPRPRPVYYPRP the figure was -1.02. For RRIRLRPPRLPRPRPRPVQVPRP, the “shrunken log2 fold change” value was -0.113. With RRIRNRPPRLPRPRPRPIHNPRP the figure was -0.976; with RRIRSRPPRLPRPRPRPKADPRP, 0.572. With RRIRMRPPRLPRPRPRPYSIPRP the figure was -0.0122. The figure for RRIRLRPPRLPRPRPRPNWMPRP is -0.296; for RRIRERPPRLPRPRPRPNDCPRP it is -0.0231; for RRIRGRPPRLPRPRPRPIQIPRP it is -0.0799. With RRIRYRPPRLPRPRPRPDYLPRP, the “shrunken log2 fold change” value is -1.57. With RRIRGRPPRLPRPRPRPWNIPRP the figure was -0.409. With RRIRERPPRLPRPRPRPGCCPRP the figure was 0.131.

For RRIRSRPPRLPRPRPRPIAPPRP, the “shrunken log2 fold change” value is -0.0336. Consider RRIRPRPPRLPRPRPRPHYFPRP, for which the “shrunken log2 fold change” value was -0.335. Regarding RRIRTRPPRLPRPRPRPKFYPRP, the “shrunken log2 fold change” value is -0.272. On to RRIRKRPPRLPRPRPRPWLDPRP, for which the “shrunken log2 fold change” value worked out at 0.296. Consider RRIRVRPPRLPRPRPRPVMLPRP, for which the “shrunken log2 fold change” value is -0.0602.

Turning to RRIRRRPPRLPRPRPRPMLFPRP, the “shrunken log2 fold change” value turned out to be 0.263. RRIRLRPPRLPRPRPRPPPDPRP: the “shrunken log2 fold change” value is 1.19. The figure for RRIRMRPPRLPRPRPRPWTAPRP is -0.0195; for RRIRMRPPRLPRPRPRPCSNPRP it is 0.0191; for RRIRMRPPRLPRPRPRPHVNPRP it is -0.132.

For the sequence RRIRGRPPRLPRPRPRPEKGPRP, the “shrunken log2 fold change” value was 0.136.

On to RRIRTRPPRLPRPRPRPLYCPRP, for which the “shrunken log2 fold change” value was -0.715. With RRIRPRPPRLPRPRPRPANPPRP, the “shrunken log2 fold change” value came to 0.13. The figure for RRIRNRPPRLPRPRPRPGHYPRP is -0.171. The figure for RRIRLRPPRLPRPRPRPEVSPRP is 0.254; for RRIRGRPPRLPRPRPRPVVSPRP it is 0.62; for RRIRGRPPRLPRPRPRPMTEPRP it is 0.0819. The figure for RRIRSRPPRLPRPRPRPDMYPRP is 0.00612; for RRIRCRPPRLPRPRPRPSIKPRP it is -0.597. Take RRIRTRPPRLPRPRPRPMFCPRP: the “shrunken log2 fold change” value was -0.628.

For RRIRVRPPRLPRPRPRPCYLPRP, the “shrunken log2 fold change” value is -0.56. The figure for RRIRWRPPRLPRPRPRPASEPRP is 0.329; for RRIRKRPPRLPRPRPRPAHGPRP it is 0.502. With RRIRFRPPRLPRPRPRPTMNPRP the figure was -0.511. As for RRIRRRPPRLPRPRPRPPMQPRP, the “shrunken log2 fold change” value was determined as 0.385. With RRIRFRPPRLPRPRPRPVIWPRP the figure was -0.0895; with RRIRGRPPRLPRPRPRPKEWPRP, -0.00523; with RRIRYRPPRLPRPRPRPWFLPRP, -1.18.

RRIRIRPPRLPRPRPRPQTVPRP: the “shrunken log2 fold change” value was -0.271.

Consider RRIRQRPPRLPRPRPRPVRMPRP, for which the “shrunken log2 fold change” value was found to be 0.149. With RRIRMRPPRLPRPRPRPMIWPRP the figure was 0.237. Consider RRIRSRPPRLPRPRPRPCDYPRP, for which the “shrunken log2 fold change” value is -0.238.

For RRIRERPPRLPRPRPRPGRIPRP, the “shrunken log2 fold change” value was -0.0858.

For the sequence RRIRQRPPRLPRPRPRPPGWPRP, the “shrunken log2 fold change” value is -0.0951. With RRIRRRPPRLPRPRPRPCECPRP, the “shrunken log2 fold change” value stood at 0.076. The figure for RRIRMRPPRLPRPRPRPDELPRP is 2.12; for RRIRIRPPRLPRPRPRPPMHPRP it is -0.0688. Take RRIRWRPPRLPRPRPRPTDTPRP: the “shrunken log2 fold change” value was -0.0769.
